{
  "source": "patent EP4786496A1",
  "about": "(Nanjing Iaso Biotechnology Co., Ltd., dated 2026)",
  "key": {"[1]": {"target": "T1, BAFF-R on the surface of BAFF-R-positive cells (K562-BAFF-R, NALM6, RS4, MEC1, JEKO1) (human, UniProt Q96RJ3 1-184)", "T1 construct": "The cell line is named under assay or readout of each row; K562-BAFF-R overexpresses BAFF-R; the others are human tumour lines that carry it natively; also called K562-BAFF-R cells; RS4-luc", "T1 sequence": "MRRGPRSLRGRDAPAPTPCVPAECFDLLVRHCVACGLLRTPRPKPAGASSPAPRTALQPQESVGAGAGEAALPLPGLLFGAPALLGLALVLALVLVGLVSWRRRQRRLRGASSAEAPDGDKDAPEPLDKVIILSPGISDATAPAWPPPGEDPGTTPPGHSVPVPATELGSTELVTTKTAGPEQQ", "assay": "flow cytometry, phage on K562-BAFF-R and NALM6 cells"}, "[2]": {"target": "T2, Recombinant biotinylated Human BAFF-R Protein (KACTUS, BAFF-R-HM401) (human, UniProt Q96RJ3 7-71, limits assumed, biotinylated (site not stated))", "T2 construct": "Bought protein; treated as one product; also called BAFF-R-his-Bio; BAFF-R-Bio-his; not shown: His tag", "T2 sequence": "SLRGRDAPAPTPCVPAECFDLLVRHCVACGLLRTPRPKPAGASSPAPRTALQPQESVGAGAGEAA", "assay": "ELISA, antigen coated on plate, anti-human IgG HRP"}, "[3]": {"target": "T3, BAFFR-mouse-rFc (50353-M31H, Sino) (mouse, UniProt Q9D8D0 1-71)", "T3 construct": "Bought protein; also called Mouse BAFF-R; not shown: rFc", "T3 sequence": "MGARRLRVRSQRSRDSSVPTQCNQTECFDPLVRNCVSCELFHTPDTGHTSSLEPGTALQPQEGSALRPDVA", "assay": "ELISA, antigen coated on plate, anti-human IgG HRP"}, "[4]": {"target": "T4, BAFFR-cyno-His (BAF-CM10R, KACTUS) (cynomolgus, UniProt Q96RJ3 7-71 (human entry), limits assumed)", "T4 construct": "Bought protein; also called Cyno BAFF-R; cynomolgus BAFF-R; not shown: His tag", "assay": "ELISA, antigen coated on plate, anti-human IgG HRP"}, "[5]": {"target": "T5, His-tagged human BAFF-R antigen (BAR-H52H3, Acro) (human, UniProt Q96RJ3 7-71, limits assumed)", "T5 construct": "Bought protein used in BLI; not shown: His tag", "T5 sequence": "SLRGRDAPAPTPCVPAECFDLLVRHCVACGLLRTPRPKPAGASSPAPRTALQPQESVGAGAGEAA", "assay": "BLI (ForteBio Octet), His-tagged antigen on HIS1K sensor, antibody in solution"}},
  "data": [
    {"binder": "VAY736 positive control phage antibody clone (scFv, also called VAY736 antibody) scFv: QVQLQQSGPGLVKPSQTLSLTCAISGDSVSSNSAAWGWIRQSPGRGLEWLGRIYYRSKWYNSYAVSVKSRITINPDTSKNQFSLQLNSVTPEDTAVYYCARYQWVPKIGVFDSWGQGTLVTVSSGGGGSGGGGSGGGGSDIVLTQSPATLSLSPGERATLSCRASQFILPEYLSWYQQKPGQAPRLLIYGSSSRATGVPARFSGSGSGTDFTLTISSLEPEDFAVYYCQQFYSSPLTFGQGTKVEIK", "values": [
      {"measurement": "binding result", "setting": "[1]", "result": "binds"}
    ]},
    {"binder": "Clone 5 monoclonal antibody with Fc comprising S228P/L235E (05VH-hFc PE) (antibody, human IgG4 S228P, V domains shown, Single-domain VH fused to a human Fc, made in CHOS cells; also called Clone 05; clone 05 monoclonal antibody) VH: EVQLVESGGGVVQPGRSLRLTCAASGFTFSTSGMYWIRQAPGKGLEWVSYISSSSSTIYYADSVKGRFTISRDNSKNTLYLQMNSLRAEDTAVYYCVTQSCGAGKCYPGVWGQGTTVTVSS", "values": [
      {"measurement": "EC50", "setting": "[2]", "result": 0.965, "unit": "nM"},
      {"measurement": "EC50", "setting": "[3]", "result": 3.4, "unit": "nM"},
      {"measurement": "EC50", "setting": "[4]", "result": 1.91, "unit": "nM"},
      {"measurement": "Kd", "setting": "[5]", "result": 2.63, "unit": "nM"},
      {"measurement": "koff", "setting": "[5]", "result": 0.00163, "unit": "s⁻¹"},
      {"measurement": "kon", "setting": "[5]", "result": 622000, "unit": "M⁻¹ s⁻¹"}
    ]}
  ]
}
